Target: HLA-A2 molecules on the cell surface (total) (human)
Assay: flow cytometry on 501A melanoma cells, PE-conjugated BB7.2

MFI: 56.4 MFI
Substance: anti-HLA-A2 mAb BB7.2 (antibody)

Reference: patent US20100158927A1
